We go through 1 molecule from paper PMC9535758 (EMBO Reports, 2022).

The experiment concerns the target T1, Human recombinant His-tagged PALB2 (human, UniProt Q86YC2 1-1186).
T1 sequence: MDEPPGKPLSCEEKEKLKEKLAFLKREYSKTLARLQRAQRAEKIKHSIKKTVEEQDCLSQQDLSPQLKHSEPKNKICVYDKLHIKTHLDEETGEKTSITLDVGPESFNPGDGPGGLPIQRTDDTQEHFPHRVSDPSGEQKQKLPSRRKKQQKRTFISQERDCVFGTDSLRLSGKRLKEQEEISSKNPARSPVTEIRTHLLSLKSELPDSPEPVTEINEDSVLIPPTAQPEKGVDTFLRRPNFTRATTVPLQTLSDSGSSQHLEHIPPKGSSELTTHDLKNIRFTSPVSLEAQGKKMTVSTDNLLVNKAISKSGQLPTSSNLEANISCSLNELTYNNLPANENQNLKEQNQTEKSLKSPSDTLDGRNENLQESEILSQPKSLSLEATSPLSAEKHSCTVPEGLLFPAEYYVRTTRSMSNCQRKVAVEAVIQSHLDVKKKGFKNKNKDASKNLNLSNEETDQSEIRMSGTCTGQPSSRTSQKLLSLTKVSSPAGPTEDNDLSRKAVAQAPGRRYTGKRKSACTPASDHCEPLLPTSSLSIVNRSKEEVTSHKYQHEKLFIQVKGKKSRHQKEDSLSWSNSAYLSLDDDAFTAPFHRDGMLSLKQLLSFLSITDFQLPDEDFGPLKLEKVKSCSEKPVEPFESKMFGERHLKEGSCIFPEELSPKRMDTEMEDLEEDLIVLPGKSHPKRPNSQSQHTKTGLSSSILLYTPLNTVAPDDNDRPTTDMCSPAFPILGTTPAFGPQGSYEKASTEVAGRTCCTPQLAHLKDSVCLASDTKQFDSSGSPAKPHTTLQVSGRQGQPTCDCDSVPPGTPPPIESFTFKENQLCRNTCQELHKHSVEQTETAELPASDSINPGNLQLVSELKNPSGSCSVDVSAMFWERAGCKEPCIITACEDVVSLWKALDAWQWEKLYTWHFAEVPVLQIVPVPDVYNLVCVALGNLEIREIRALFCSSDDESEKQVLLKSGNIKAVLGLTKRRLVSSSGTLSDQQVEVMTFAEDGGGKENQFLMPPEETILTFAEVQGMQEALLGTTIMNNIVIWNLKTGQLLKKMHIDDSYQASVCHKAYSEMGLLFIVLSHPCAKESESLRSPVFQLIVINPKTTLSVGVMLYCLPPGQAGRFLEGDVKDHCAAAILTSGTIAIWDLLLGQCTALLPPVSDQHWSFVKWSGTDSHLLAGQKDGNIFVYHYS
Description: pull-down.

For the molecule MPIGSKERPTFFEIFKTRCNKADLGPISLNWFEELSSEAP (domain or fragment) [BRCA2_(1-40)HA-His], the binding result is listed as “binds”.
